Tests used:
Tau aggregates = Tau aggregates (Homo sapiens, UniProt P10636); test: hetero-dimeric tandem capping peptide screen, Tau biosensor cell line; format: cell-based; settings: 625 nM capping peptide, 50 nM Tau seeds, 24 hours
Sup35-NM aggregates = biological target: T1, Sup35-NM aggregates (Saccharomyces cerevisiae, UniProt P05453); test: hetero-dimeric tandem capping peptide screen, NM biosensor cell line; format: cell-based; settings: 625 nM capping peptide, 50 nM NM seeds, 24 hours
T1 sequence (P05453 1-253 limits assumed): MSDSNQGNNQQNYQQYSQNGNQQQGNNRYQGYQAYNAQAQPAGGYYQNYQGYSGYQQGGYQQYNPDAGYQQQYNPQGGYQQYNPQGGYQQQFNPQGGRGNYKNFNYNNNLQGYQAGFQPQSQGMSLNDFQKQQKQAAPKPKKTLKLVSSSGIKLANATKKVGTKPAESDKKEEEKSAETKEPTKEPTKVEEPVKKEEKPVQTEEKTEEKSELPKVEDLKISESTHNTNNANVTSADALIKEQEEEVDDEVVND

Aβ fibrils = biological target: T2, Aβ fibrils (Homo sapiens, UniProt P05067); test: in vitro Aβ seeding aggregation assay (Th-T); format: biochemical; settings: fibrils 10 μM preincubated with 50 μM capping peptide approx. 4 hours; 10% added to 10 μM monomeric Aβ
T2 construct: mixed with preformed, sonicated Aβ aggregates (2 μM)
Protocol: Capping peptides from Table 6 were freshly dissolved in DMSO (stock concentration 1 mM) and filtered before the assay. 1 μL peptide capping solution was mixed with 19 μL preformed, sonicated Aβ fibrils (stock concentration 10 μM). As such, this mixture contained 10 μM Aβ fibrils and 50 μM capping peptide and was incubated for approx. 4 hours. Next, freshly dissolved monomeric Aβ was prepared by separation on a column. This monomeric Aβ (final concentration 10 μM) was mixed with 10% of the Aβ fibrils-peptide mixture and Th-T was added to monitor aggregation.

Aβ aggregates = biological target: T3, Aβ aggregates (Homo sapiens, UniProt P05067); test: Aβ biosensor screening assay; format: cell-based; settings: for capping activity of single capping sequence across all hetero-tandem peptides: analysis of all tandems containing the single sequence (FIG. 22); for relative number of cells positive for induced Aβ aggregation (seeding capacity of Aβ seeds): 100 nM Aβ aggregates on cells, concentration range of capping peptide
T3 construct: mixed with preformed, sonicated Aβ aggregates (2 μM)
Protocol: Hetero-tandem capping peptides depicted in Table 5 were dissolved in DMSO, filtered and mixed with preformed, sonicated Aβ aggregates (2 μM). This mixture was incubated for approx. 4 hours and transfected into Aβ biosensor cells. Aβ biosensor cells stably express soluble Aβ-mCherry and Aβ aggregation can be induced by transfecting preformed Aβ aggregates in these cells (FIG. 17). The final concentration of Aβ aggregates on the cells is 100 nM and a concentration range of capping peptides was used. In other words, the condition in which no seeds are added is shown as 0, while the condition in which 100 nM Aβ aggregates are added (without capping peptides) is shown as 1.

preformed tau aggregates [1] = biological target: T4, preformed tau aggregates (Homo sapiens, UniProt P10636); test: tau biosensor seeding assay; format: cell-based; settings: 20 hours after transfection; for fraction of cells with green spots (induced tau aggregation) / fraction of cells with red spots (exogenous preformed tau aggregates): single concentration 500 nM on cells, 200 nM preformed tau aggregates
Protocol: The 33 different non-natural molecules (with a final concentration of 10 μM) were mixed with preformed (sonicated) tau aggregates (with a final concentration of 4 μM). The preformed tau aggregates are labeled with a far-red atto-633 dye to monitor the efficiency of cellular uptake and degradation. After an incubation of 6 hours the resulting non-natural molecule—tau aggregate mixture was transfected in tau biosensor cells (described in Holmes et al (2014) Proc Natl Acad Sci USA. 111(41): E4376-E4385). The tau biosensor cell line is a monoclonal FRET biosensor HEK293T cell line stably expressing both the tau repeat domain (RD) fused to the fluorescent protein CFP and the tau repeat protein fused to the fluorescent protein YFP. Without the addition of preformed tau seeds, the biosensor cells stably express diffuse tau (soluble). However, exposure to exogenous preformed tau aggregates induces tau aggregation, generating a FRET signal with the CFP-YFP pair, intensifying the fluorescent signal in the tau inclusions. The FRET signal allows to distinguish the tau aggregate formation from the monomeric background. The use of phospholipids (e.g. lipofectamine—Source: Thermofisher) for the transfection of exogenous tau aggregates maximizes the aggregate inducing capacity.
The final peptide concentration of the non-natural molecules applied on the cells is 500 nM and the final concentration of preformed tau aggregates is 200 nM. 20 hours after transfection cells were fixed and two readouts were used to quantify the activities of the non-natural molecules: • determination of the fraction of cells with green spots: these are the cells that have induced tau aggregation. • determination of the fraction of cells with red spots: these are the cells that are positive for preformed tau aggregates.
In this example non-natural molecules of the invention were generated based on the sequences of capping peptides CAP1_TR and HET (sequences depicted in column 2 in Table 2). A tau biosensor seeding assay was performed with a concentration range of peptides. Thus, the assay is the same as described in example 2 but now a range of concentrations of capping peptides and non-natural molecules comprising the capping peptides were used to incubate with preformed tau aggregates. FIGS. 6 and 7 depict the final concentration of the peptides and derived non-natural molecules applied on the cells (see FIGS. 6 and 7).

preformed tau aggregates [2] = biological target: T4, preformed tau aggregates; test: Microscale Thermophoresis (MST) with preformed tau aggregates; format: binding
Protocol: To measure the affinity of the capping peptides, and non-natural molecules derived thereof, with full length tau, we performed Microscale Thermophoresis (MST, Monolith NT.Automated) experiments. Briefly, atto-633-labeled tau monomers or atto-633-labeled preformed tau aggregates were mixed with a concentration range of capping peptides, and non-natural molecules derived thereof, and MST measurement were performed.

preformed tau aggregates [3] = biological target: T4, preformed tau aggregates; test: spreading of tau pathology in hTau[P301L] mice; format: in vivo; settings: tau aggregates pretreated 6 hours, injected in hippocampus of hTau[P301L] mice; nine weeks; vs vehicle
Protocol: In an alternative transgenic murine model preformed tau aggregates are pretreated with the non-natural molecule (SEQ ID NO: 22) and after an incubation of 6 hours, this preformed mixture is injected into the hippocampus of young hTau^[P301L] mice (see Kent BA et al (2017) Brain Behay. 8(1) e00896), which haven't developed any tau pathology yet. Nine weeks after injection mice are sacrificed. Immunohistochemical (IHC) quantification of AT8-positive inclusions in the ipsilateral (injection site) and contralateral hippocampus (opposite site) is conducted. Preformed tau aggregates pretreated with a buffer serve as a control vehicle. We observe that the level of tau pathology spread to the contralateral hippocampus is reduced when the non-natural molecule depicted in SEQ ID NO: 22 is applied as compared to the vehicle.

T3 sequence (P05067 672-713 limits assumed): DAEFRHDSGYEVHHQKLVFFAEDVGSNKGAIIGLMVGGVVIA
T2 sequence (P05067 672-713 limits assumed): as above
Tau aggregates, sequence (P10636 1-441 isoform P10636-8): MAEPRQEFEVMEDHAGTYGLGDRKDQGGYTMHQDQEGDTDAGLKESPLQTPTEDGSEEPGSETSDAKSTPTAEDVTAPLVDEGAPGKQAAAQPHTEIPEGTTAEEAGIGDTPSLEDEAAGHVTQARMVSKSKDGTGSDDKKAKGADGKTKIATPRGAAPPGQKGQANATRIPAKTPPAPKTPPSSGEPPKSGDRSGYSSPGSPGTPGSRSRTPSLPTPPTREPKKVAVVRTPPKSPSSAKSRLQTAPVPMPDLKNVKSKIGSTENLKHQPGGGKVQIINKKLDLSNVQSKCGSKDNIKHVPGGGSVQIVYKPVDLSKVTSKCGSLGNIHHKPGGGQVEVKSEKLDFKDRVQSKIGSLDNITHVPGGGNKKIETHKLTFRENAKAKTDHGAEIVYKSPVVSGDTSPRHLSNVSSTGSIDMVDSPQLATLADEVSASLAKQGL
T4 sequence (P10636 1-441 isoform P10636-8): as above

EQIINKGSFQIVYK (Capping peptide) [CAP_4D]
fraction of cells with induced aggregates, normalized (Tau aggregates): most performant peptides | specificity for tau aggregation (a-specific effects in Sup35-NM biosensor line) (Sup35-NM aggregates): specific for inhibiting tau aggregation

GWVVIAGSKLKFFA (Capping peptide) [AbCAP19]
seeding capacity of preformed, sonicated Aβ fibrils (Th-T aggregation) (Aβ fibrils): clear effect on the seeding capacity

KLWFFA (Capping peptide)
capping activity of single capping sequence across all hetero-tandem peptides (Aβ aggregates): score well at the highest concentrations

MVGGPVGSKLKFFA (Capping peptide) [AbCap 14]
relative number of cells positive for induced Aβ aggregation (seeding capacity of Aβ seeds) (Aβ aggregates): effect at the highest concentrations

MVGGVKGSKWVFFP (Capping peptide) [AbCap 11]
relative number of cells positive for induced Aβ aggregation (seeding capacity of Aβ seeds) (Aβ aggregates): effect at the highest concentrations

MVWGVV (Capping peptide)
capping activity of single capping sequence across all hetero-tandem peptides (Aβ aggregates): score well at the highest concentrations

MVWGVVGSKLKFFA (Capping peptide) [AbCAP_2]
seeding capacity of preformed, sonicated Aβ fibrils (Th-T aggregation) (Aβ fibrils): clear effect on the seeding capacity

MVWGVVGSKLWFFA (Capping peptide) [AbCAP3]
seeding capacity of preformed, sonicated Aβ fibrils (Th-T aggregation) (Aβ fibrils): clear effect on the seeding capacity

MVWGVVGSKWVFFA (Capping peptide) [AbCap 4]
seeding capacity of preformed, sonicated Aβ fibrils (Th-T aggregation) (Aβ fibrils): clear effect on the seeding capacity | relative number of cells positive for induced Aβ aggregation (seeding capacity of Aβ seeds) (Aβ aggregates): concentration-dependent effect

RWQIVYKEGSRWQIVYKR [CAP1_TR]
fraction of cells with red spots (exogenous tau aggregates; tau aggregate degradation) (preformed tau aggregates [1]; concentration range of peptide, tau aggregates pre-treated 6 hours): slight reduction in cells positive for red spots in the highest concentration

VQWINKGSVQMVYK (Capping peptide) [CAP_1E]
fraction of cells with induced aggregates, normalized (Tau aggregates): most performant peptides | specificity for tau aggregation (a-specific effects in Sup35-NM biosensor line) (Sup35-NM aggregates): specific for inhibiting tau aggregation

VQWINKGSWQIVYK (Capping peptide) [CAP_1A]
fraction of cells with induced aggregates, normalized (Tau aggregates): most performant peptides | specificity for tau aggregation (a-specific effects in Sup35-NM biosensor line) (Sup35-NM aggregates): specific for inhibiting tau aggregation

WQIVYKGSVWMINK [HET]
fraction of cells with green spots (induced tau aggregation) (preformed tau aggregates [1]): reduced tau aggregation | fraction of cells with red spots (exogenous preformed tau aggregates) (preformed tau aggregates [1]): reduction in exogenous preformed tau aggregates | affinity for tau aggregates compared to tau monomers (MST) (preformed tau aggregates [2]; aggregates versus monomers): higher affinity for tau aggregates compared to tau-monomers | affinity for tau aggregates (MST) (preformed tau aggregates [2]; atto-633-labeled preformed tau aggregates, concentration range): measured affinities are significantly higher compared to CAP1_TR variants

WQIVYKGSVWMINKGSGSKFERQKILDQRFFE (HET_CMA1) [HET-CMA1]
fraction of cells with green spots (induced tau aggregation) (preformed tau aggregates [1]): reduced tau aggregation | fraction of cells with red spots (exogenous preformed tau aggregates) (preformed tau aggregates [1]): reduction in exogenous preformed tau aggregates

WQIVYKGSVWMINKGSGSNLLRLTGW (HET_JAV) [HET-JAV]
level of tau pathology spread to the contralateral hippocampus (AT8-positive inclusions, IHC) (preformed tau aggregates [3]): reduced | fraction of cells with green spots (induced tau aggregation) (preformed tau aggregates [1]): reduced tau aggregation | fraction of cells with red spots (exogenous preformed tau aggregates) (preformed tau aggregates [1]): reduction in exogenous preformed tau aggregates

WQIVYKGSVWMINKGSGSVKKDQGSKFERQ (HET_CMA2) [HET-CMA2]
fraction of cells with green spots (induced tau aggregation) (preformed tau aggregates [1]): reduced tau aggregation | fraction of cells with red spots (exogenous preformed tau aggregates) (preformed tau aggregates [1]): reduction in exogenous preformed tau aggregates
